These results are taken from US7005419 (US Dept. of Health and Human Services, dated 2006).

For one experiment, the target named is T1, p21^Cip1/Wafl (human, UniProt P38936 1-164, limits assumed).
T1 construct: Both are written as one molecule; also called p21^wafl
Kind of experiment: co-immunoprecipitation with anti-p21 from transfected HCT116 cells, anti-HA Western blot. As to the method:
(§1) The immunoprecipitates were then analyzed by Western blot with anti-HA antibody.
For orientation: In western blotting, separated proteins are transferred to a membrane and probed.

Another experiment deals with T2, Cdc2 (human, UniProt P06493 1-297).
T2 construct: Endogenous cellular protein; also called cellular Cdc2; Cdc2 polypeptide
T2 sequence (P06493 whole entry): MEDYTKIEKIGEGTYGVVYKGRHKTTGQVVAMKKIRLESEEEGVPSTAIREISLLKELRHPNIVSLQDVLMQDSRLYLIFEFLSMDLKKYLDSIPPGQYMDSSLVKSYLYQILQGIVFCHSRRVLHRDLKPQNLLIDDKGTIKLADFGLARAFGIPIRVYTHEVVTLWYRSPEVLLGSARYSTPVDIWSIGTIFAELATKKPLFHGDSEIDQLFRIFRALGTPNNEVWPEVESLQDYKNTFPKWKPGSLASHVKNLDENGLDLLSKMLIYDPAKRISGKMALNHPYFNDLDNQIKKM
Kind of experiment: co-immunoprecipitation with anti-Cdc2 from transfected HCT116 cells, anti-HA Western blot. The procedure: as §1

A further experiment deals with T3, PCNA (human, UniProt P12004 1-261).
T3 construct: Endogenous cellular protein
T3 sequence (P12004 whole entry): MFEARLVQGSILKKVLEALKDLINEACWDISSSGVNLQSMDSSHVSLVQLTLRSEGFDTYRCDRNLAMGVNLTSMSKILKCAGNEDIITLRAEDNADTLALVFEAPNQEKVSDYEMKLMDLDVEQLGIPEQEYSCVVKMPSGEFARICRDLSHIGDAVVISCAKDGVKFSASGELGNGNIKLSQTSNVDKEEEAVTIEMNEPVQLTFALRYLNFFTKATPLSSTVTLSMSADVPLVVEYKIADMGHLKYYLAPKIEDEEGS
As to the kind of experiment: co-immunoprecipitation with anti-PCNA from transfected HCT116 cells, anti-HA Western blot. As to the method: as §1

The next experiment has as its target Cdk2 (human, UniProt P24941 1-298). Kind of experiment: GST pull-down from RKO cell lysate, anti-Cdk2 immunoblot.
A further experiment concerns the target T4, Cyclin B1 (human, UniProt P14635 1-433).
T4 construct: Endogenous cellular protein
As to the kind of experiment: GST pull-down from RKO cell lysate, anti-cyclin B1 immunoblot.

T1 sequence (P38936 whole entry): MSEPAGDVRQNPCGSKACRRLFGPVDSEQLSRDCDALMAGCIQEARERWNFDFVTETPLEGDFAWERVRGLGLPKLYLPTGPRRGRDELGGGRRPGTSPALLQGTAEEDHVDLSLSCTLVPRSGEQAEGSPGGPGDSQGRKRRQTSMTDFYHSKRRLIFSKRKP
T4 sequence (P14635 whole entry): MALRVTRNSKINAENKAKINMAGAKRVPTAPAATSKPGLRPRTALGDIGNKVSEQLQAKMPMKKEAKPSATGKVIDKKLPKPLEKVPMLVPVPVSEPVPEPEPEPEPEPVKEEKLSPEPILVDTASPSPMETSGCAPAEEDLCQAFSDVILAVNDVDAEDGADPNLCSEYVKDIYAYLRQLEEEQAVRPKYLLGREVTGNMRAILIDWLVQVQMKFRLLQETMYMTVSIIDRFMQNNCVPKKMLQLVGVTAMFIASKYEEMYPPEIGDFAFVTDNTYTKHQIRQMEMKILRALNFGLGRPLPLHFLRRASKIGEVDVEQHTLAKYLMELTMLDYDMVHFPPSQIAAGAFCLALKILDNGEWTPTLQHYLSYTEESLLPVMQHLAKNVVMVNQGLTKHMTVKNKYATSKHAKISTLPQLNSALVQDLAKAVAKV

B1: GADD45 deletion mutant del50-76 (HA-tagged) (other, not shown: small tags and cut ends)
chain: MTLEEFSAGEQKTERMDKVGDALEEVLSKALSQRTITVGVYEAAKLLNVLIQAFCCENDINILRVSNPGRLAELLLLETDAGPAASEGAEQPPDLHCVLVTNPHSSQWKDPALSQLICFCRESRYMDQWVPVINLPER
notes: The junction is not described
For B1, the binding result with p21^Cip1/Wafl, with Cdc2 and with PCNA was “no binding” throughout.

B2: glutathione-S-transferase (GST)/GADD45 fusion protein (other)
chain: TLEEFSAGEQKTERMDKVGDALEEVLSKALSQRTITVGVYEAAKLLNVDPDNVVLCLLAADEDDDRDVALQIHFTLIQAFCCENDINILRVSNPGRLAELLLLETDAGPAASEGAEQPPDLHCVLVTNPHSSQWKDPALSQLICFCRESRYMDQWVPVINLPER
notes: GADD45 insert was amplified from pHul45B2 and cloned XhoI/NotI into pGEX4T; also called GST-tagged GADD45; not shown: Glutathione-S-transferase encoded by the pGEX4T vector (Pharmacia)
Regarding B2, the binding result in the experiment with Cdk2 and with Cyclin B1 was “no binding (tested: 100 ng)” throughout.
